The target of this assay is full-length Smad2, wild type (S2FLWT), Q15796. Kind of assay: SAXS with ensemble optimization method. The following applies: remark: other sources report otherwise.

In article doi:10.1101/2021.04.13.439655 one finds percent of the population as dimer and percent of the population as trimer data, which are given here for one molecule.

B1: full-length Smad2, wild type (S2FLWT), Q15796 1-467 (natural protein)
chain: MSSILPFTPPVVKRLLGWKKSAGGSGGAGGGEQNGQEEKWCEKAVKSLVKKLKKTGRLDELEKAITTQNCNTKCVTIPSTCSEIWGLSTPNTIDQWDTTGLYSFSEQTRSLDGRLQVSHRKGLPHVIYCRLWRWPDLHSHHELKAIENCEYAFNLKKDEVCVNPYHYQRVETPVLPPVLVPRHTEILTELPPLDDYTHSIPENTNFPAGIEPQSNYIPETPPPGYISEDGETSDQQLNQSMDTGSPAELSPTTLSPVNHSLDLQPVTYSEPAFWCSIAYYELNQRVGETFHASQPSLTVDGFTDPSNSERFCLGLLSNVNRNATVEMTRRHIGRGVRLYYIGGEVFAECLSDSAIFVQSPNCNQRYGWHPATVCKIPPGCNLKIFNNQEFAALLAQSVNQGFEAVYQLTRMCTIRMSFVKGWGAEYRRQTVTSTPCWIELHLNGPLQWLDKVLTQMGSPSVRCSSMS
For the molecule B1, the percent of the population as dimer at 56 μM amounted to 18%, the percent of the population as trimer at 13.8 μM worked out at 1% and the percent of the population as trimer at 56.1 μM stood at 16.4%.
